Key:
[1] = molecular target: T1, PA0932 (PaCysM, cysteine synthase B) (Pseudomonas aeruginosa, UniProt Q9I526); experiment: ninhydrin steady-state kinetics, global fit (Km […]); substrate inhibition Ki; format: biochemical
T1 construct: gene cysM; recombinant, N-terminal His-tag with TEV cleavage site; homodimer
T1 sequence (Q9I526 1-299): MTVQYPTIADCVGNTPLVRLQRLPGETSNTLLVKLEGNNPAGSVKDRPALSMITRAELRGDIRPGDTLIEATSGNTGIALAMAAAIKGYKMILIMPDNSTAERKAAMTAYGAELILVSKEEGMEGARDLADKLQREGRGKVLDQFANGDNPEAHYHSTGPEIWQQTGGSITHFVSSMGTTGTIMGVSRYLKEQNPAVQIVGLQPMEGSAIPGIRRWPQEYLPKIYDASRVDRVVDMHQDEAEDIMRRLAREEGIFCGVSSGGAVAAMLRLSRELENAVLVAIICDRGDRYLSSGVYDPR

[2] = molecular target: T2, PA2709 (PaCysK, cysteine synthase A) (Pseudomonas aeruginosa, UniProt Q9I0D3); experiment: UV-vis absorption ([…] nm), near-UV circular dichroism, fluorescence; format: binding
T2 construct: gene cysK; recombinant, N-terminal His-tag with TEV cleavage site; homodimer
T2 sequence (Q9I0D3 1-324): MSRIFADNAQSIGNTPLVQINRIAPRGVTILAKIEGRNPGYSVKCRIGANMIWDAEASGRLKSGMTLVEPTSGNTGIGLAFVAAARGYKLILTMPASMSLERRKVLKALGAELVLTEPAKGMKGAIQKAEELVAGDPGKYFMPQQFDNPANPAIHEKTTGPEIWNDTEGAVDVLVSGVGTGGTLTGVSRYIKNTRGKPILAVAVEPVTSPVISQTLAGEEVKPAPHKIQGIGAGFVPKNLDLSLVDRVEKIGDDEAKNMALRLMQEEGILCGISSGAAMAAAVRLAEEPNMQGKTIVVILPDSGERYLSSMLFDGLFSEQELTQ

[3] = molecular target: T1, PA0932 (PaCysM, cysteine synthase B); experiment: as above; format: binding
[4] = substrate: CC(=O)OC[C@H](N)C(=O)O; experiment: UV-vis absorption of PLP intermediates; steady-state kinetics with bisulfide electrode (Km); format: biochemical, Pseudomonas aeruginosa; details: pyridoxal […]'-phosphate (PLP) active site; forms alpha-aminoacrylate intermediate with PLP; pH 7.0; 25.0 °C
[5] = substrate: CC(=O)OC[C@H](N)C(=O)O; experiment: UV-vis absorption of PLP intermediates; steady-state kinetics, ninhydrin assay with thiosulfate (Km); format: biochemical, Pseudomonas aeruginosa; details: pyridoxal […]'-phosphate (PLP) active site; forms alpha-aminoacrylate intermediate with PLP; pH 7.0; 25.0 °C
[6] = molecular target: the molecule itself; experiment: SEC-MALS; Agilent GPC/SEC, AdvanceBio SEC column (300 Å), dual-angle light-scattering detector, BSA as calibrant; protein loaded at 1 mg/mL in buffer H (100 mM HEPES, pH 7.0), 20 °C, 1 mL/min

Molecule: O=S(O)(O)=S [thiosulfate]
- Ki [1]: 970 ± 830 µM

Molecule: Cc1ncc(COP(=O)(O)O)c(C=O)c1O [PLP, pyridoxal 5′-phosphate]
- UV-vis absorption (411 nm), near-UV circular dichroism, fluorescence [2]: absorption of the PLP cofactor bound as an internal aldimine to the catalytic lysine
- UV-vis absorption (413 nm), near-UV circular dichroism, fluorescence [3]: absorption of the PLP cofactor bound as an internal aldimine to the catalytic lysine

B1: PA2709 (PaCysK, cysteine synthase A) (Pseudomonas aeruginosa PAO1) (protein)
chain: T2 sequence (Q9I0D3 1-324)
notes: recombinant, N-terminal His-tag with TEV cleavage site; homodimer
- Km [4]: 1100 ± 100 µM
- kcat [4]: 102 ± 3 s⁻¹
- kcat/Km [4]: 90000 ± 9000 M⁻¹ s⁻¹

B2: PA0932 (PaCysM, cysteine synthase B) (Pseudomonas aeruginosa PAO1) (protein)
chain: T1 sequence (Q9I526 1-299)
notes: as for B1
- Km [5]: 2700 ± 600 µM
- kcat [5]: 209 ± 25 s⁻¹
- kcat/Km [5]: 79000 ± 20000 M⁻¹ s⁻¹

B3: Cysteine synthase A (PA2709, PaCysK) from Pseudomonas aeruginosa (enzyme, Pseudomonas aeruginosa PAO1, UniProt Q9I0D3 1-324, looked up)
chain: T2 sequence (Q9I0D3 1-324)
modifications: PLP cofactor bound as an internal aldimine to the catalytic lysine (Lys44, based on sequence alignments)
notes: Cysteine synthase A (CysK, PA2709) of P. aeruginosa PAO1; gene optimised for E. coli, synthesised and cloned between NdeI and BamHI into pET28a-TEV; calculated mass for a dimer 69 kDa; also called O-acetylserine sulfhydrylase; OASS-A; not shown: His6, N-terminal, cleaved
- stoichiometry N [6]: 2

B4: Cysteine synthase B (PA0932, PaCysM) from Pseudomonas aeruginosa (enzyme, Pseudomonas aeruginosa PAO1, UniProt Q9I526 1-299, looked up)
chain: T1 sequence (Q9I526 1-299)
modifications: PLP cofactor bound as an internal aldimine to the catalytic lysine (Lys45, based on sequence alignments)
notes: Cysteine synthase B (CysM, PA0932) of P. aeruginosa PAO1; gene optimised for E. coli, synthesised and cloned between NdeI and BamHI into pET28a-TEV; calculated mass for a dimer 65 kDa; also called OASS-B; S-sulfocysteine synthase; not shown: His6, N-terminal, cleaved
- stoichiometry N [6]: 2

Source: article PMC12800425, “De novo cysteine biosynthesis in Pseudomonas aeruginosa: Characterization of the two main cysteine synthase isoforms” (iScience, 2025)
